Measured values from US20250296995A1 (GlaxoSmithKline, published 2025).
Changes are numbered by the printed parent chain. “And” between values parts separate entries of the source, which are not always exact repeats. Equal entries are not always repeated.

Legend:
[1] = target: T1, recombinant SPOCK1 protein (human, UniProt Q08629 22-439); experiment: SPR with recombinant protein
T1 sequence (looked up): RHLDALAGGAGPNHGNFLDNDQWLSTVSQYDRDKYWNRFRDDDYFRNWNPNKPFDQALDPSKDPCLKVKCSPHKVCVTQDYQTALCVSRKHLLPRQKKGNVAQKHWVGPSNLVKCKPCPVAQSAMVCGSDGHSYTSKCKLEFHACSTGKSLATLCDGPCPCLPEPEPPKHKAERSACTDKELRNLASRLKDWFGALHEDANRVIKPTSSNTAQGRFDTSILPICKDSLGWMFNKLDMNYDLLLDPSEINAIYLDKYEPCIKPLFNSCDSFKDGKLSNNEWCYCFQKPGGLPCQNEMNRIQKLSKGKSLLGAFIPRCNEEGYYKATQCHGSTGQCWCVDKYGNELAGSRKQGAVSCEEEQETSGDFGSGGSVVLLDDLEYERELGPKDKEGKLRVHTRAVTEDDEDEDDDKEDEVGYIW

[2] = target: T2, recombinant Plasmodium falciparum circumsporozoite protein (CSP) (Plasmodium falciparum, UniProt Q7K740 21-375); experiment: SPR, recombinant CSP
T2 construct: also called recombinant CSP

[3] = target: T2, recombinant Plasmodium falciparum …; experiment: binding affinity column of the in vivo table (SPR, CSP)
[4] = target: T3, recombinant CNTNAP2 protein (human, UniProt Q9UHC6 28-1262); experiment: SPR with recombinant protein
T3 sequence (looked up): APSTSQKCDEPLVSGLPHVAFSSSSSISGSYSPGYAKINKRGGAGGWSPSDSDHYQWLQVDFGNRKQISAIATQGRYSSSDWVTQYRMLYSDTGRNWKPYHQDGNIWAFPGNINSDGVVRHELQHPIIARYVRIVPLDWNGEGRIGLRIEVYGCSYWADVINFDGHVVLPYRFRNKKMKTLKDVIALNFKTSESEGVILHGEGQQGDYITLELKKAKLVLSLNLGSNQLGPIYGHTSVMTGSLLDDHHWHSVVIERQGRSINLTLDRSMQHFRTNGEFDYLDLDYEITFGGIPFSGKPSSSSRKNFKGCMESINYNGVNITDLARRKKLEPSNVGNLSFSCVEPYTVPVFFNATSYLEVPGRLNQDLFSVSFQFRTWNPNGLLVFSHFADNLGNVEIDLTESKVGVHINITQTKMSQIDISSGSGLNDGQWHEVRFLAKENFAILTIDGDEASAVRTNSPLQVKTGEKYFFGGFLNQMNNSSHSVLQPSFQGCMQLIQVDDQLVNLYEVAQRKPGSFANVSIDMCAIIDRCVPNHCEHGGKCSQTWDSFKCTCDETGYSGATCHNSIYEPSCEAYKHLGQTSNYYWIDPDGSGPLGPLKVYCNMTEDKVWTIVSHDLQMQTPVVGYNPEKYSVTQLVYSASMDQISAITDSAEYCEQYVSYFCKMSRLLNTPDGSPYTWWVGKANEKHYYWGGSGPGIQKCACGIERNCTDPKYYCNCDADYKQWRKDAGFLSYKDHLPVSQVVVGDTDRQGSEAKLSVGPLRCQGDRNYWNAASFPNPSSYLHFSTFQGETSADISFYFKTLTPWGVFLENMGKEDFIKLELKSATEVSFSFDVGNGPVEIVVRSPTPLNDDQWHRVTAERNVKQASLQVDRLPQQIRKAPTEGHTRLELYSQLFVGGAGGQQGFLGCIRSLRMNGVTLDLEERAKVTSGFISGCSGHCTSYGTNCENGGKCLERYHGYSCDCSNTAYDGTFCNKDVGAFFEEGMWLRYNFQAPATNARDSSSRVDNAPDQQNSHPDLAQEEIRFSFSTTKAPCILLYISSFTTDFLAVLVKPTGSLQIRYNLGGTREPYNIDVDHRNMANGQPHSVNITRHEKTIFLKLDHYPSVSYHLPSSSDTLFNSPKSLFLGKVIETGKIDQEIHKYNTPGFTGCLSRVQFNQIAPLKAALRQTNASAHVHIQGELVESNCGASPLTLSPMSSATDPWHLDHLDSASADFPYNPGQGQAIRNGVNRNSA

[5] = target: recombinant Plasmodium falciparum circumsporozoite protein (CSP) (Plasmodium falciparum, UniProt P19597 21-375); experiment: cell-based or functional assay
Target sequence in this assay (P19597 21-375 limits assumed): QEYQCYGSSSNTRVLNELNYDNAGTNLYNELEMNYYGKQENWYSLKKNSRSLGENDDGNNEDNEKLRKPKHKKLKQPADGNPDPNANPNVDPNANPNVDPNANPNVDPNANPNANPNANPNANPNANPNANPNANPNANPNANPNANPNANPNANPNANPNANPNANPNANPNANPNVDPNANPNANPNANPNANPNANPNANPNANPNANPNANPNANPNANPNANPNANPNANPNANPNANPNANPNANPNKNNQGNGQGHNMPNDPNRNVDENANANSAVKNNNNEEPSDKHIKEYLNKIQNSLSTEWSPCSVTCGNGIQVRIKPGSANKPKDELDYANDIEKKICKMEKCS

[6] = target: T4, recombinant Plasmodium falciparum circumsporozoite protein (CSP) (Plasmodium falciparum, UniProt P19597 21-375); experiment: cell-based or functional assay; remark: listed apart in the source
T4 sequence (P19597 21-375 limits assumed): as above

[7] = target: T4, recombinant Plasmodium falciparum …; experiment: SPR, recombinant CSP; geometric mean, n=3
[8] = target: T4, recombinant Plasmodium falciparum …; experiment: SPR, recombinant CSP; n=1
[9] = target: T4, recombinant Plasmodium falciparum …; experiment: cell-based or functional assay; remark: listed apart in the source
[10] = target: T4, recombinant Plasmodium falciparum …; experiment: cell-based or functional assay; remark: listed apart in the source
human FcRn = target: T5, human FcRn (human, UniProt P55899 24-297; P61769 21-119); experiment: SPR, human FcRn, pH 6.0
T5 construct: also called neonatal Fc receptor

human FcγRIIa (H131) = target: T6, human FcγRIIa (H131) (human, UniProt P12318 36-218); experiment: SPR, human FcγR
T6 construct: also called hFcγRIIaH
T6 sequence (looked up): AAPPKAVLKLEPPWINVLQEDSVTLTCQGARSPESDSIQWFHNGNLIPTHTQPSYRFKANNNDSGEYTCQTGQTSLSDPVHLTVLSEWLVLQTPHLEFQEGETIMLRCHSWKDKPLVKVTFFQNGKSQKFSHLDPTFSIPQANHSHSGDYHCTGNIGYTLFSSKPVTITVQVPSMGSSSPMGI
Description: (§1) A human IgG1 antibody in both WT and Fc silenced (LAGA) formats were included as negative control.

human FcγRIIIa (V158) = target: T7, human FcγRIIIa (V158) (human, UniProt P08637 17-208); experiment: SPR, human FcγR
T7 construct: also called hFcγRIIIaV
Description: as §1

human FcγRIIa (R131) = target: T8, human FcγRIIa (R131) (human, UniProt P12318 36-218); experiment: SPR, human FcγR
T8 construct: also called hFcγRIIaR
T8 sequence (looked up): T6 sequence (looked up) with H132R
Description: as §1

human FcγRIIIa (F158) = target: T9, human FcγRIIIa (F158) (human, UniProt P08637 17-208); experiment: SPR, human FcγR
T9 construct: also called hFcγRIIIaF
Description: as §1

human FcγRI = target: T10, human FcγRI (human, UniProt P12314 16-288); experiment: SPR, human FcγR
T10 construct: also called hFcγRI; CD64
Description: as §1

human FcγRIIb = target: T11, human FcγRIIb (human, UniProt P31994 43-217); experiment: SPR, human FcγR
T11 construct: also called hFcγRIIb
T11 sequence (looked up): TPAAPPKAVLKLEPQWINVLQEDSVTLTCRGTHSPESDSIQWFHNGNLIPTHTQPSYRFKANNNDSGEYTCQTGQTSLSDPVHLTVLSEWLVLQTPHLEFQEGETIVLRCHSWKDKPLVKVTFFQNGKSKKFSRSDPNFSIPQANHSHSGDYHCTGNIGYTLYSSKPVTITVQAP
Description: as §1

T2 sequence (Q7K740 21-375 limits assumed): as the sequence (P19597 21-375 limits assumed) above
T9 sequence (P08637 17-208 limits assumed): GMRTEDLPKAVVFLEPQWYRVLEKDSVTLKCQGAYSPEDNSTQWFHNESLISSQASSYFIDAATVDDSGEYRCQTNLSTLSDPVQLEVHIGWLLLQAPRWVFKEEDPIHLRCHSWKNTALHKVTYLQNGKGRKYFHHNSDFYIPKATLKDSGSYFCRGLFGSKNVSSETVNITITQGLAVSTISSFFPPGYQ
T7 sequence (P08637 17-208 F176V limits assumed): as the sequence (P08637 17-208 limits assumed) above, with F160V counted along it
T10 sequence (P12314 16-288 limits assumed): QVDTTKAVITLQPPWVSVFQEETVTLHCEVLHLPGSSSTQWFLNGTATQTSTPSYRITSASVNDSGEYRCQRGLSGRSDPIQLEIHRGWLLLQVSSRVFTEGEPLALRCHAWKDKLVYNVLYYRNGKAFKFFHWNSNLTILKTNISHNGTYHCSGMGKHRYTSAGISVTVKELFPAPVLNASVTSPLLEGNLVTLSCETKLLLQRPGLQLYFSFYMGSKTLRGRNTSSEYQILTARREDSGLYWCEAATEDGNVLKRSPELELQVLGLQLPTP
T5 sequence (P55899 24-297 limits assumed, form in doubt, chain 1 of 2): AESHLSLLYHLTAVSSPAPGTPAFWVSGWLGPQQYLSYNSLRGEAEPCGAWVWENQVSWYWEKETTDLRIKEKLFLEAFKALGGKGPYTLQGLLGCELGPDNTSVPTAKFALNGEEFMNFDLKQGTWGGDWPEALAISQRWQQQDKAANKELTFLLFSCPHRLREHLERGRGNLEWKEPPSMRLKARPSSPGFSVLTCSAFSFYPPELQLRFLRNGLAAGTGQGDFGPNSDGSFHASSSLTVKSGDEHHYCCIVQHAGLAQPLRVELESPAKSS
T5 sequence (P61769 21-119 limits assumed, form in doubt, chain 2 of 2): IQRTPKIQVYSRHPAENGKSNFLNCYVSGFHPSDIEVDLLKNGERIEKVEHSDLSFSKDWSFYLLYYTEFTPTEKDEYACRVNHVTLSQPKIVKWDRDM

B1: 338-LS (antibody, V domains shown)
VH: QVQLVESGGGVVQPGRSLRLSCAASGFSFSTYGMHWIRQVPGKGLEWVAIIWHDGSKEFYADSVKGRFTISRDNSKKKLYLQMNSLRAEDTAIYYCVKDDFDSSGHSYFHYWGQGTLVTVSS
VL: GVVMTQSPLSLPVTLGQPASISCRSSQSLVHSDGNTYVHWFQQRPGQSPRRLIYKVSNRDSGVPDRFSGSGSGTDFTLKISRVEAEDVGVYYCMQGTQWWTFGQGTKVEIK
[1]
  binding result: no binding (tested: 300 nM)

B2: 338-ALE-LS (antibody, human IgG1, kappa, V domains shown)
VH: B1 VH
VL: GVVMTQSPLSLPVTLGQPASISCRSSQSLVHSDGNTYVHWFQQRPGQSPRRLIYKVSNRDSGVPDRFSGSGSGTDFTLKISRVEAEDVGVYYCMQGTQWWTFGQGTKVEIKR
[1]
  binding result: no binding (tested: 300 nM)

B3: AB-000356 LS (antibody, V domains shown)
VH: QVQLVESGGGVVQPGRSLRLSCAASGFTFRNFGMHWVRQTPGKGLEWVAVIWHDGSNKFYADSVEGRFTISRDNSKNMIYLQMNSLRVEDTAIYYCARDSLFYDHDNSGYYGYWGQGTLVTVSS
VL: QIVMTQSPATVSVSPGERATLSCRASRSVTSKLAWYQQKPGQAPRLLIYGASTRATGIPARFSGSGSGTEFTLTISSLQSEDFAVYFCQQYNNGFTFGPGTKVDFK
[2]
  Kd: 2.46 nM
  koff: 0.00107 s⁻¹
  kon: 436000 M⁻¹ s⁻¹
[3]
  Kd: 2.46 nM

B4: 356-ALE-LS (antibody, human IgG1, kappa)
heavy: QVQLVESGGGVVQPGRSLRLSCAASGFTFRNFGMHWVRQTPGKGLEWVAVIWHDGSNKFYADSVEGRFTISRDNSKNMIYLQMNSLRVEDTAIYYCARDSLFYDHDNSGYYGYWGQGTLVTVSSASTKGPSVFPLAPSSKSTSGGTAALGCLVKDYFPEPVTVSWNSGALTSGVHTFPAVLQSSGLYSLSSVVTVPSSSLGTQTYICNVNHKPSNTKVDKKVEPKSCDKTHTCPPCPAPELLAGPSVFLFPPKPKDTLMISRTPEVTCVVVDVSHEDPEVKFNWYVDGVEVHNAKTKPREEQYNSTYRVVSVLTVLHQDWLNGKEYKCKVSNKALPLPEEKTISKAKGQPREPQVYTLPPSRDELTKNQVSLTCLVKGFYPSDIAVEWESNGQPENNYKTTPPVLDSDGSFFLYSKLTVDKSRWQQGNVFSCSVLHEALHSHYTQKSLSLSPGK
light: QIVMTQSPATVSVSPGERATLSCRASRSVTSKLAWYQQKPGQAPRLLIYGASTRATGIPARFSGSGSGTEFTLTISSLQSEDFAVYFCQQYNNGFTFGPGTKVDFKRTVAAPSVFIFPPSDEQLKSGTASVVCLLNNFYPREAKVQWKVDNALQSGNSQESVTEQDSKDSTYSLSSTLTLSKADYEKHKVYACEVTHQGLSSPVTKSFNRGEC
[4]
  binding result: no binding (tested: 300 nM)
[5]
  EC50 in ADCP assay: < 0.001 nM

B5: AB-000356 ALE LS (antibody, human IgG1, kappa)
heavy: B4 heavy
light: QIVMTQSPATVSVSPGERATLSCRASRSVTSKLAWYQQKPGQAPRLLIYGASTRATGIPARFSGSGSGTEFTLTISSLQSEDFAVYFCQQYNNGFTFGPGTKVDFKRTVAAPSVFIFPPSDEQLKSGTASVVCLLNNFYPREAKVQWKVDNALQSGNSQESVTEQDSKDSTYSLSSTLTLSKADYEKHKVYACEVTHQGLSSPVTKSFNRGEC
[6]
  GeoMean EC50 (M), ADCP: 5.03e-13 M
  Mean EC50 (pM), ADCP: 0.5 pM
  Mean pEC50, ADCP: 12.3
[7]
  Kd: 1.1 nM
[8]
  Kd: 1.58 nM
[9]
  Geo Mean EC50 (ug/ml), ADNKA, Donor 1: 0.0052 µg/mL
  Geo Mean EC50 (ug/ml), ADNKA, Donor 2: 0.0035 µg/mL
  Geo Mean EC50 (ug/ml), ADNKA, Donor 3: 0.189 µg/mL
  Geo Mean EC50 (ug/ml), ADNKA, Donor 4: 0.0104 µg/mL
[10]
  GeoMean EC50 (M), ADCP repeat, n=4: 6.45e-13 M
  Mean EC50 (pM), ADCP repeat, n=4: 0.6 pM
  Mean pEC50, ADCP repeat, n=4: 12.2
Human FcRn
  Kd: 52 nM
Human FcγRIIa (H131)
  Kd: 218 nM and 268 nM
Human FcγRIIIa (V158)
  Kd: 73 nM and 144 nM
Human FcγRIIa (R131)
  Kd: 675 nM and 766 nM
Human FcγRIIIa (F158)
  Kd: 89 nM and 246 nM
Human FcγRI
  Kd: 56 nM and 157 nM
Human FcγRIIb
  Kd: 3890 nM

B6: 356-DEA-FV-LS (antibody, human IgG1, kappa)
heavy: B4 heavy with S246D, T257V, A294F, L337A
light: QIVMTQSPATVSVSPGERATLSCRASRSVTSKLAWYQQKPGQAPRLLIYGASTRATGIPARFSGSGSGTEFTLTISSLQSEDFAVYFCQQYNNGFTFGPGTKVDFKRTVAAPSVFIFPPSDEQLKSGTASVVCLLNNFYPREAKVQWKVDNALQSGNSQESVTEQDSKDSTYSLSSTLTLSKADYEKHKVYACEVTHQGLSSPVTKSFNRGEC
[4]
  binding result: no binding (tested: 300 nM)
[5]
  EC50 in ADCP assay: < 0.001 nM

B7: AB001480 (antibody, V domains shown)
VH: QVQLVESGGGVVQPGRSLRLSCAASGFTFSFYGMHWVRQAPGKGLEWVAVIWYDGSNKYYADSVRGRFTISRDNSKNTLYLQMNSLRAEDTAVYYCARVGNDYDDHGSALDMWGQGTMVTVSS
VL: DIQMTQSPSTLSASVGDRVTITCRASQSISSWLAWYQQKPGKAPKLLIYRASSLESGVPPRFSGSGSGTEFTLTISSLQPDDFGIYYCQQYNSRWTFGQGTKVEIK
[2]
  Kd: 1.17 nM and 1.18 nM
  koff: 0.000659 s⁻¹
  kon: 561000 M⁻¹ s⁻¹
[3]
  Kd: 1.18 nM

B8: AB001387 (antibody, V domains shown)
VH: QVQLVESGGGVVQPGRSLRLSCAASGFTFSNYGMHWVRQAPGKGLEWVAVIWYDGSNKFYADSVKGRFTSSRDNSKNTLYLQMNSLRAEDTAVYYCARDGRFLTTVTTAYFDYWGQGTLVTVSS
VL: QSVLTQPPSVSGAPGQRVTISCTGSSSNIGAGYDVHWYQQLPGTAPKLLIYGNSNRPSGVPDRFSGSKSGTSASLAITGLQAEDEADYYCQSYDSSLSALVFGGGTKLTVL
[2]
  Kd: 0.676 nM
  koff: 0.00111 s⁻¹
  kon: 1.65e+06 M⁻¹ s⁻¹
[3]
  Kd: 0.676 nM

B9: AB-000222 (antibody, V domains shown)
VH: QVQLVESGGGVVQPGRSLRLSCAASGFTFSNFGMHWVRQAPGKGLEWVAVIWYDGSKKYYADFVKGRFTISRDNSKYMLYLQMTSLGAEDTAIYYCARDIRGAYRVTDGGFDYWGQGALVTVSS
VL: QFVLTQPPSVSGAPGQRVTISCTGSSFNIGAGYDVHWYQQLPEKAPKLLIYGSTNRASEVPDRFSGSKSGTSASLAITGLQPEDEADYYCQSYDSSLSGYVFGTGTKVTVL
[2]
  Kd: 0.153 nM and 0.152 nM
  koff: 0.00118 s⁻¹
  kon: 7.76e+06 M⁻¹ s⁻¹
[3]
  Kd: 0.152 nM
